Data published in US20200199241A1 (Chugai, published 2020).

T1: human FcγRIIb (human, UniProt P31994 43-217, limits assumed)
T1 construct: also called FcgRIIb; hFcgRIIb
T1 sequence: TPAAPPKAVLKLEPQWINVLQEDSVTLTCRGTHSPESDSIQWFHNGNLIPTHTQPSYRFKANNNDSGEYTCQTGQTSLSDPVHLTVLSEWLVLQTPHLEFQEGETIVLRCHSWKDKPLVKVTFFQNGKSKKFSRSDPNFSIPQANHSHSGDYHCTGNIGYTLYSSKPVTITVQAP

T2: human FcγRIIa(H) (human, UniProt P12318 36-217)
T2 construct: also called FcgRIIaH; hFcgRIIa(H)
T2 sequence: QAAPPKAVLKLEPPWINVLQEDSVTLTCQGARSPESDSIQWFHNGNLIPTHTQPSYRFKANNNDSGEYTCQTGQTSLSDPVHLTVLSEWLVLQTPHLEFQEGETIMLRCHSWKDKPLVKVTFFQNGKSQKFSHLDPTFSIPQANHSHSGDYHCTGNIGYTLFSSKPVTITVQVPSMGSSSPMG

T3: human FcγRIIa(R) (human, UniProt P12318 36-217)
T3 construct: also called FcgRIIaR; hFcgRIIa(R)
T3 chain: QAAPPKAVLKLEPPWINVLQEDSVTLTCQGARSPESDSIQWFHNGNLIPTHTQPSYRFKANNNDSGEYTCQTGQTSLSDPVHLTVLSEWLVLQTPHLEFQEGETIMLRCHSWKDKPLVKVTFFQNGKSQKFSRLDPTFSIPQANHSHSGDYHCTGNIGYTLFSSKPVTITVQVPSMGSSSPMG


Key:
Assay in all cases: SPR, captured antibody;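 also: antibody captured on a sensor chip, Fcγ receptor flowed over at 25 °C, receptor binding normalized to the captured antibody amount and expressed relative to the reference antibody ×100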
human FcγRIIb = molecular target: T1, human FcγRIIb
human FcγRIa = molecular target: T4, human FcγRIa (human, UniProt P12314 16-292, limits assumed)
T4 construct: also called FcgRIa; hFcgRIa

human FcγRIIa(H) = molecular target: T2, human FcγRIIa(H)
human FcγRIIa(R) = molecular target: T3, human FcγRIIa(R)

T4 sequence (P12314 16-292 limits assumed): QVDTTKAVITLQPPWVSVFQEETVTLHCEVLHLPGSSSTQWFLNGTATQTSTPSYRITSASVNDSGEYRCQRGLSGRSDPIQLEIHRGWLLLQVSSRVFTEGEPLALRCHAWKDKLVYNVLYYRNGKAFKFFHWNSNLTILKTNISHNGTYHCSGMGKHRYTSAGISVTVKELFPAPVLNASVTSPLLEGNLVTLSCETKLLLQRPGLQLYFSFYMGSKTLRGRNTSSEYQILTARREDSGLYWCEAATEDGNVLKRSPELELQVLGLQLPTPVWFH

Binder	relative binding activity (human FcγRIIb)	relative binding activity (human FcγRIa)	relative binding activity (human FcγRIIa(H))	relative binding activity (human FcγRIIa(R))
GpH7-B3 P329F/GpL16-k0 (antibody, human IgG1, B3 variant; copies: 2 + 2) heavy: not shown light: DIVMTQSPLSLPVTPGEPASISCQASESLVHSNRNTYLHWYLQKPGQSPQLLIYKVSNRFSGVPDRFSGSGSGTDFTLKISRVEAEDVGVYYCSQNTHVPPTFGQGTKVEIE	0 % of GpH7-B3/GpL16-k0	79 % of GpH7-B3/GpL16-k0	1 % of GpH7-B3/GpL16-k0	1 % of GpH7-B3/GpL16-k0
GpH7-B3 P329G/GpL16-k0 (antibody, human IgG1, B3 variant; copies: 2 + 2) heavy: not shown light: DIVMTQSPLSLPVTPGEPASISCQASESLVHSNRNTYLHWYLQKPGQSPQLLIYKVSNRFSGVPDRFSGSGSGTDFTLKISRVEAEDVGVYYCSQNTHVPPTFGQGTKVEIE	0 % of GpH7-B3/GpL16-k0	92 % of GpH7-B3/GpL16-k0	1 % of GpH7-B3/GpL16-k0	1 % of GpH7-B3/GpL16-k0
GpH7-B3 P329H/GpL16-k0 (antibody, human IgG1, B3 variant; copies: 2 + 2) heavy: not shown light: DIVMTQSPLSLPVTPGEPASISCQASESLVHSNRNTYLHWYLQKPGQSPQLLIYKVSNRFSGVPDRFSGSGSGTDFTLKISRVEAEDVGVYYCSQNTHVPPTFGQGTKVEIE	-3 % of GpH7-B3/GpL16-k0	50 % of GpH7-B3/GpL16-k0	0 % of GpH7-B3/GpL16-k0	-1 % of GpH7-B3/GpL16-k0
GpH7-B3 P329I/GpL16-k0 (antibody, human IgG1, B3 variant; copies: 2 + 2) heavy: not shown light: DIVMTQSPLSLPVTPGEPASISCQASESLVHSNRNTYLHWYLQKPGQSPQLLIYKVSNRFSGVPDRFSGSGSGTDFTLKISRVEAEDVGVYYCSQNTHVPPTFGQGTKVEIE	13 % of GpH7-B3/GpL16-k0	89 % of GpH7-B3/GpL16-k0	21 % of GpH7-B3/GpL16-k0	22 % of GpH7-B3/GpL16-k0
GpH7-B3 P329L/GpL16-k0 (antibody, human IgG1, B3 variant; copies: 2 + 2) heavy: not shown light: DIVMTQSPLSLPVTPGEPASISCQASESLVHSNRNTYLHWYLQKPGQSPQLLIYKVSNRFSGVPDRFSGSGSGTDFTLKISRVEAEDVGVYYCSQNTHVPPTFGQGTKVEIE	1 % of GpH7-B3/GpL16-k0	68 % of GpH7-B3/GpL16-k0	2 % of GpH7-B3/GpL16-k0	2 % of GpH7-B3/GpL16-k0
GpH7-B3 P329M/GpL16-k0 (antibody, human IgG1, B3 variant; copies: 2 + 2) heavy: not shown light: DIVMTQSPLSLPVTPGEPASISCQASESLVHSNRNTYLHWYLQKPGQSPQLLIYKVSNRFSGVPDRFSGSGSGTDFTLKISRVEAEDVGVYYCSQNTHVPPTFGQGTKVEIE	0 % of GpH7-B3/GpL16-k0	69 % of GpH7-B3/GpL16-k0	2 % of GpH7-B3/GpL16-k0	2 % of GpH7-B3/GpL16-k0
GpH7-B3 P329N/GpL16-k0 (antibody, human IgG1, B3 variant; copies: 2 + 2) heavy: not shown light: DIVMTQSPLSLPVTPGEPASISCQASESLVHSNRNTYLHWYLQKPGQSPQLLIYKVSNRFSGVPDRFSGSGSGTDFTLKISRVEAEDVGVYYCSQNTHVPPTFGQGTKVEIE	0 % of GpH7-B3/GpL16-k0	45 % of GpH7-B3/GpL16-k0	5 % of GpH7-B3/GpL16-k0	4 % of GpH7-B3/GpL16-k0
GpH7-B3 P329Q/GpL16-k0 (antibody, human IgG1, B3 variant; copies: 2 + 2) heavy: not shown light: DIVMTQSPLSLPVTPGEPASISCQASESLVHSNRNTYLHWYLQKPGQSPQLLIYKVSNRFSGVPDRFSGSGSGTDFTLKISRVEAEDVGVYYCSQNTHVPPTFGQGTKVEIE	-2 % of GpH7-B3/GpL16-k0	43 % of GpH7-B3/GpL16-k0	0 % of GpH7-B3/GpL16-k0	-1 % of GpH7-B3/GpL16-k0
GpH7-B3 P329R/GpL16-k0 (antibody, human IgG1, B3 variant; copies: 2 + 2) heavy: not shown light: DIVMTQSPLSLPVTPGEPASISCQASESLVHSNRNTYLHWYLQKPGQSPQLLIYKVSNRFSGVPDRFSGSGSGTDFTLKISRVEAEDVGVYYCSQNTHVPPTFGQGTKVEIE	-3 % of GpH7-B3/GpL16-k0	9 % of GpH7-B3/GpL16-k0	-1 % of GpH7-B3/GpL16-k0	-2 % of GpH7-B3/GpL16-k0
GpH7-B3 P329S/GpL16-k0 (antibody, human IgG1, B3 variant; copies: 2 + 2) heavy: not shown light: DIVMTQSPLSLPVTPGEPASISCQASESLVHSNRNTYLHWYLQKPGQSPQLLIYKVSNRFSGVPDRFSGSGSGTDFTLKISRVEAEDVGVYYCSQNTHVPPTFGQGTKVEIE	-1 % of GpH7-B3/GpL16-k0	60 % of GpH7-B3/GpL16-k0	1 % of GpH7-B3/GpL16-k0	0 % of GpH7-B3/GpL16-k0
GpH7-B3 P329T/GpL16-k0 (antibody, human IgG1, B3 variant; copies: 2 + 2) heavy: not shown light: DIVMTQSPLSLPVTPGEPASISCQASESLVHSNRNTYLHWYLQKPGQSPQLLIYKVSNRFSGVPDRFSGSGSGTDFTLKISRVEAEDVGVYYCSQNTHVPPTFGQGTKVEIE	-4 % of GpH7-B3/GpL16-k0	43 % of GpH7-B3/GpL16-k0	0 % of GpH7-B3/GpL16-k0	-2 % of GpH7-B3/GpL16-k0
GpH7-B3 P329V/GpL16-k0 (antibody, human IgG1, B3 variant; copies: 2 + 2) heavy: not shown light: DIVMTQSPLSLPVTPGEPASISCQASESLVHSNRNTYLHWYLQKPGQSPQLLIYKVSNRFSGVPDRFSGSGSGTDFTLKISRVEAEDVGVYYCSQNTHVPPTFGQGTKVEIE	13 % of GpH7-B3/GpL16-k0	95 % of GpH7-B3/GpL16-k0	28 % of GpH7-B3/GpL16-k0	24 % of GpH7-B3/GpL16-k0
GpH7-B3 P329W/GpL16-k0 (antibody, human IgG1, B3 variant; copies: 2 + 2) heavy: not shown light: DIVMTQSPLSLPVTPGEPASISCQASESLVHSNRNTYLHWYLQKPGQSPQLLIYKVSNRFSGVPDRFSGSGSGTDFTLKISRVEAEDVGVYYCSQNTHVPPTFGQGTKVEIE	0 % of GpH7-B3/GpL16-k0	94 % of GpH7-B3/GpL16-k0	0 % of GpH7-B3/GpL16-k0	1 % of GpH7-B3/GpL16-k0
GpH7-B3 P329Y/GpL16-k0 (antibody, human IgG1, B3 variant; copies: 2 + 2) heavy: not shown light: DIVMTQSPLSLPVTPGEPASISCQASESLVHSNRNTYLHWYLQKPGQSPQLLIYKVSNRFSGVPDRFSGSGSGTDFTLKISRVEAEDVGVYYCSQNTHVPPTFGQGTKVEIE	-3 % of GpH7-B3/GpL16-k0	76 % of GpH7-B3/GpL16-k0	0 % of GpH7-B3/GpL16-k0	-1 % of GpH7-B3/GpL16-k0
GpH7-B3 P331G/GpL16-k0 (antibody, human IgG1, B3 variant; copies: 2 + 2) heavy: not shown light: DIVMTQSPLSLPVTPGEPASISCQASESLVHSNRNTYLHWYLQKPGQSPQLLIYKVSNRFSGVPDRFSGSGSGTDFTLKISRVEAEDVGVYYCSQNTHVPPTFGQGTKVEIE	8 % of GpH7-B3/GpL16-k0	88 % of GpH7-B3/GpL16-k0	9 % of GpH7-B3/GpL16-k0	13 % of GpH7-B3/GpL16-k0
GpH7-B3 P331K/GpL16-k0 (antibody, human IgG1, B3 variant; copies: 2 + 2) heavy: not shown light: DIVMTQSPLSLPVTPGEPASISCQASESLVHSNRNTYLHWYLQKPGQSPQLLIYKVSNRFSGVPDRFSGSGSGTDFTLKISRVEAEDVGVYYCSQNTHVPPTFGQGTKVEIE	63 % of GpH7-B3/GpL16-k0	98 % of GpH7-B3/GpL16-k0	58 % of GpH7-B3/GpL16-k0	72 % of GpH7-B3/GpL16-k0
GpH7-B3 P331R/GpL16-k0 (antibody, human IgG1, B3 variant; copies: 2 + 2) heavy: not shown light: DIVMTQSPLSLPVTPGEPASISCQASESLVHSNRNTYLHWYLQKPGQSPQLLIYKVSNRFSGVPDRFSGSGSGTDFTLKISRVEAEDVGVYYCSQNTHVPPTFGQGTKVEIE	55 % of GpH7-B3/GpL16-k0	95 % of GpH7-B3/GpL16-k0	59 % of GpH7-B3/GpL16-k0	64 % of GpH7-B3/GpL16-k0
GpH7-B3 Q295D/GpL16-k0 (antibody, human IgG1, B3 variant; copies: 2 + 2) heavy: not shown light: DIVMTQSPLSLPVTPGEPASISCQASESLVHSNRNTYLHWYLQKPGQSPQLLIYKVSNRFSGVPDRFSGSGSGTDFTLKISRVEAEDVGVYYCSQNTHVPPTFGQGTKVEIE	40 % of GpH7-B3/GpL16-k0	95 % of GpH7-B3/GpL16-k0	37 % of GpH7-B3/GpL16-k0	43 % of GpH7-B3/GpL16-k0
GpH7-B3 Q295F/GpL16-k0 (antibody, human IgG1, B3 variant; copies: 2 + 2) heavy: not shown light: DIVMTQSPLSLPVTPGEPASISCQASESLVHSNRNTYLHWYLQKPGQSPQLLIYKVSNRFSGVPDRFSGSGSGTDFTLKISRVEAEDVGVYYCSQNTHVPPTFGQGTKVEIE	30 % of GpH7-B3/GpL16-k0	99 % of GpH7-B3/GpL16-k0	74 % of GpH7-B3/GpL16-k0	46 % of GpH7-B3/GpL16-k0
GpH7-B3 Q295G/GpL16-k0 (antibody, human IgG1, B3 variant; copies: 2 + 2) heavy: not shown light: DIVMTQSPLSLPVTPGEPASISCQASESLVHSNRNTYLHWYLQKPGQSPQLLIYKVSNRFSGVPDRFSGSGSGTDFTLKISRVEAEDVGVYYCSQNTHVPPTFGQGTKVEIE	28 % of GpH7-B3/GpL16-k0	89 % of GpH7-B3/GpL16-k0	41 % of GpH7-B3/GpL16-k0	36 % of GpH7-B3/GpL16-k0
GpH7-B3 Q295H/GpL16-k0 (antibody, human IgG1, B3 variant; copies: 2 + 2) heavy: not shown light: DIVMTQSPLSLPVTPGEPASISCQASESLVHSNRNTYLHWYLQKPGQSPQLLIYKVSNRFSGVPDRFSGSGSGTDFTLKISRVEAEDVGVYYCSQNTHVPPTFGQGTKVEIE	29 % of GpH7-B3/GpL16-k0	97 % of GpH7-B3/GpL16-k0	78 % of GpH7-B3/GpL16-k0	45 % of GpH7-B3/GpL16-k0
GpH7-B3 Q295N/GpL16-k0 (antibody, human IgG1, B3 variant; copies: 2 + 2) heavy: not shown light: DIVMTQSPLSLPVTPGEPASISCQASESLVHSNRNTYLHWYLQKPGQSPQLLIYKVSNRFSGVPDRFSGSGSGTDFTLKISRVEAEDVGVYYCSQNTHVPPTFGQGTKVEIE	41 % of GpH7-B3/GpL16-k0	99 % of GpH7-B3/GpL16-k0	74 % of GpH7-B3/GpL16-k0	56 % of GpH7-B3/GpL16-k0
GpH7-B3 Q295R/GpL16-k0 (antibody, human IgG1, B3 variant; copies: 2 + 2) heavy: not shown light: DIVMTQSPLSLPVTPGEPASISCQASESLVHSNRNTYLHWYLQKPGQSPQLLIYKVSNRFSGVPDRFSGSGSGTDFTLKISRVEAEDVGVYYCSQNTHVPPTFGQGTKVEIE	46 % of GpH7-B3/GpL16-k0	100 % of GpH7-B3/GpL16-k0	94 % of GpH7-B3/GpL16-k0	61 % of GpH7-B3/GpL16-k0
